Experiment: yeast display, Sf9 membrane polyspecificity reagent, FACS + sequencing; frameworks hold sequencing errors
Summary of the method: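 Galactose induction of a Saccharomyces cerevisiae BJ5465 synthetic nanobody display library ran 36–48 hours. The cells were then stained for 1 hour at 4 °C with 10% biotinylated, detergent-solubilized Sf9 membrane reagent, pulled down on streptavidin microbeads and FACS-sorted into low and high (top ~1%) gates on expression and reagent-binding fluorescence. Labels for polyreactivity follow the gate of origin.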

Sequence	polyreactivity (PSR sort gate)
QVQLVESGGGLVQAGGSLRLSCAASGSTLEFNARGWSRQAPGKERELVAVINRSDGSTYYADSVKGRFTISRDNAKNTVYLQMNSLKPEDTAVYYCAADRHQVSVISTEDYWGQGTQVTVSS	low polyreactivity
QVQLVESGGGLVQAGGSLRLSCAASGSTLFINAMGWYRQAPGKERELVAAITSGTSTNYADSVKGRFTISRDNAKNTVYLQMNSLKPEDTAVYYCAVDYWYVPYYWGQGTQVTVSS	low polyreactivity
QVQLVESGGGLVQAGGSLRLSCAASGSTLFYYAMGCYRQAPGKERELVAAITQNGGGTYYADSVKGRFTISRDNAKNTVYLQMNSLKPEDTAVYYCAVTQEYIADHWYGYWGQGTQVTVSS	low polyreactivity
QVQLVESGGGLVQAGGSLRLSCAASGSTLGGYAMGWYRQAPGKERELVAAIRWGGNTYYADSVKGRFTISRDNAKNTVYLQMNSLKPEDTAVYYCAADRWYYFLMYYWGQGTQVTVSS	low polyreactivity
QVQLVESGGGLVQAGGSLRLSCAASGSTLGHNAMGWYRQAPGKERELVAGISWRGGSTYYADSVKGRFTISRDNAKNTVYLQMNSLKPEDTAVYYCAAVSYPAVYGFDYWGPGTQVTVSS	high polyreactivity
QVQLVESGGGLVQAGGSLRLSCAASGSTLGRNAMGWYRQAPGKERELVAGIDGSAGSTYYADSVKGRFTISRDNAKNTVYLQMNSLKPEDTAVYYCNADVIDLDYDYWGQGTQVTVSS	low polyreactivity
QVQLVESGGGLVQAGGSLRLSCAASGSTLGRYAMGWYRQAPGKERELVAAISSSGTTYYADSVKGRFTISRDNAKNTVYFQMNSLKPEDTAVYYCNARGFRVARHAAWYQYYYWGQGTQVTVSS	high polyreactivity
QVQLVESGGGLVQAGGSLRLSCAASGSTLGRYAMGWYRQAPGKERELVASITWSDDSTYYADSVKGRFTISRDNAKNTVSLQMNSLKPEDTAVYYCAAAANLYTYRFYYWGQGTQVTVSS	low polyreactivity
QVQLVESGGGLVQAGGSLRLSCAASGSTLGVNAMGWYRQAPGKEREFVAAITGRGGNTYYADSVKGRFTISRDNAKNTVYLQMNSLKPEDTAVYYCAARVKYTRYQSILDYYYWGQGTQVTVSS	high polyreactivity
QVQLVESGGGLVQAGGSLRLSCAASGSTLGVYVMGWYRQAPGKERELVAAISRNGGSTYYADSVKARFTISRDNAKNTVYLQMNSLKPEDTAVYYCAARTVGRKACFDYWGQGTQVTVSS	high polyreactivity
QVQLVESGGGLVQAGGSLRLSCAASGSTLGYYAMGWYRQAPGKERELVAAISGRGTSTYYADSVKGRFTISRDNAKTTVYLQMNSLKPEDSAVFYCAAQLFRELYWGQGTQVNVSS	high polyreactivity
QVQLVESGGGLVQAGGSLRLSCAASGSTLGYYAMGWYRQAPGKERELVAAISWRTDSTYYADSVKGRFTISRDNAKNTVYLQMNSLKPEDTAVYYCAAQGAYDTYYAQTYGYWGQGTQVTVSS	low polyreactivity
QVQLVESGGGLVQAGGSLRLSCAASGSTLGYYGMGWYRQAPGKERELVAAISGRGTSTYYADSVKGRCTISRDNAKNTVYLQMNSLKPEDTAVYYCAAQLFRELYWGQGTQVTVSS	high polyreactivity
QVQLVESGGGLVQAGGSLRLSCAASGSTLGYYTMGWYIQAPGKERELVAAITRSGGSTYYADSVKGRFTISRDNAKNTVYLQMNSLKPEDTAVYYCAARSYQGTSSGRVTRRYDYWGQGTQVTVSS	high polyreactivity
QVQLVESGGGLVQAGGSLRLSCAASGSTLGYYTMGWYRQAPGKERELVAAISYGGGSTYYADSVKGRFTISRDNAKNTVYLQMNSLKPEDTAVYYCAARWGKSWRGYGYWGQGTQVTVSS	high polyreactivity
QVQLVESGGGLVQAGGSLRLSCAASGSTLLGNTMGWYRQAPGKERELVAAISWSGGSTYYADSVKGRFTISRDNAKNTVYLQMNSLKPEDTAVYYCNALGRENKGSYGYDYWGQGTQVTVSS	low polyreactivity
QVQLVESGGGLVQAGGSLRLSCAASGSTLLYYAMGWSRQAPGKERELVAAITSGARTYYADSVKGRFTISRDNAKNTVYLQMNSLKPEDTAVYYCNAYRTSWWRAYDYWGQGTQVTVSS	high polyreactivity

Source: the nanobody polyreactivity screen of Harvey et al. (2022)
